Target: T1, GFP-TONSL E568A (Homo sapiens, UniProt Q96HA7 1-1378)
T1 construct: also called TONSL E568A / GFP; not shown: N-terminal GFP tag
T1 sequence: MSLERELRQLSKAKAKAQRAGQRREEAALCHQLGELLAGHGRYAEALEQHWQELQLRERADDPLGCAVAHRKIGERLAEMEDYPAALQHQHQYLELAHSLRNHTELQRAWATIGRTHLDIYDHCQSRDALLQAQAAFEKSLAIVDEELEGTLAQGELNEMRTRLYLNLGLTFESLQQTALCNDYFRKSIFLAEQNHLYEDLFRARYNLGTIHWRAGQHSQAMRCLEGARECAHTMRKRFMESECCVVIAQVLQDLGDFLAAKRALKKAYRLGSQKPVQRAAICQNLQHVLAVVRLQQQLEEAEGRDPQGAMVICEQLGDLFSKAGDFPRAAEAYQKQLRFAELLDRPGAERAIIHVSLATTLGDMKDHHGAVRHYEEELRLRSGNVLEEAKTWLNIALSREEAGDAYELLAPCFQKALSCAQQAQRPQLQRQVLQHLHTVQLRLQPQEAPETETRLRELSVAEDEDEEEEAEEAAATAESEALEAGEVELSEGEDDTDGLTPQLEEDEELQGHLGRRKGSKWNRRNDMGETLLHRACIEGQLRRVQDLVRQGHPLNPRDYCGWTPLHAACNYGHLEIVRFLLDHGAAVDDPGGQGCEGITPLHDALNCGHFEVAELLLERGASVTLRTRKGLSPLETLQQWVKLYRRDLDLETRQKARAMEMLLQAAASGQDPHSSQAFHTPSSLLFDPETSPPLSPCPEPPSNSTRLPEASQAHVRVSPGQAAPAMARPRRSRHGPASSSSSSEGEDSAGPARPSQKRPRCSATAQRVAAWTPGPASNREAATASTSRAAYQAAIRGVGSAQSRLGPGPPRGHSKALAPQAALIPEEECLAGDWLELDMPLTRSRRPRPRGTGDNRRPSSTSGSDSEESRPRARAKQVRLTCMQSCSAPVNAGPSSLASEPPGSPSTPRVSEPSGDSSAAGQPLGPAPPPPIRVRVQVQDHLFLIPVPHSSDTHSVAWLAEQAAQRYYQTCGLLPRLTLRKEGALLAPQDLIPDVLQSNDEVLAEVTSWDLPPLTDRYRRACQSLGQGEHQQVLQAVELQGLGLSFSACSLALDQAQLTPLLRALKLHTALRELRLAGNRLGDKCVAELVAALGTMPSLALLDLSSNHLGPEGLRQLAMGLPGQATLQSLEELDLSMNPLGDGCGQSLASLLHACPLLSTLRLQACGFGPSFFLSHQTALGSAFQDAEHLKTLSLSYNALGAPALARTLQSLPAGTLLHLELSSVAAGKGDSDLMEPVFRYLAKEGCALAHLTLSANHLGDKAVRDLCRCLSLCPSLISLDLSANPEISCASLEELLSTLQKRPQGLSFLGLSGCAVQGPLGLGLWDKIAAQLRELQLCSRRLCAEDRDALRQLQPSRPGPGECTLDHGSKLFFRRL
Test: GFP immunoprecipitation of GFP-TONSL from transfected HeLa S3 cells, western blot (co-IP; association may be indirect)

B1: MMS22L (endogenous, in cell extracts) (other, UniProt Q6ZRQ5 1-1243, looked up)
chain: MENCSAASTFLTDSLELELGTEWCKPPYFSCAVDNRGGGKHFSGESYLCSGALKRLILNLDPLPTNFEEDTLEIFGIQWVTETALVNSSRELFHLFRQQLYNLETLLQSSCDFGKVSTLHCKADNIRQQCVLFLHYVKVFIFRYLKVQNAESHVPVHPYEALEAQLPSVLIDELHGLLLYIGHLSELPSVNIGAFVNQNQIKLFPPSWHLLHLHLDIHWLVLEILYMLGEKLKQVVYGHQFMNLASDNLTNISLFEEHCETLLCDLISLSLNRYDKVRSSESLMSDQCPCLCIKELWVLLIHLLDHRSKWFVSESFWNWLNKLLKTLLEKSSDRRRSSMPVIQSRDPLGFSWWIITHVASFYKFDRHGVPDEMRKVESNWNFVEELLKKSISVQGVILEEQLRMYLHCCLTLCDFWEPNIAIVTILWEYYSKNLNSSFSISWLPFKGLANTMKSPLSMLEMVKTCCCDKQDQELYKSSSSYTIFLCILAKVVKKAMKSNGPHPWKQVKGRIYSKFHQKRMEELTEVGLQNFFSLFLLLAAVAEVEDVASHVLDLLNFLKPAFVTSQRALIWKGHMAFLLMYAQKNLDIGVLAEKFSCAFREKAKEFLVSKNEEMVQRQTIWTLLSIYIDGVQEVFETSYCLYPSHEKLLNDGFSMLLRACRESELRTVLSFLQAVLARIRSMHQQLCQELQRDNVDLFVQSSLSAKERHLAAVASALWRHFFSFLKSQRMSQVVPFSQLADAAADFTLLAMDMPSTAPSDFQPQPVISIIQLFGWDDIICPQVVARYLSHVLQNSTLCEALSHSGYVSFQALTVRSWIRCVLQMYIKNLSGPDDLLIDKNLEEAVEKEYMKQLVKLTRLLFNLSEVKSIFSKAQVEYLSISEDPKKALVRFFEAVGVTYGNVQTLSDKSAMVTKSLEYLGEVLKYIKPYLGKKVFSAGLQLTYGMMGILVKSWAQIFATSKAQKLLFRIIDCLLLPHAVLQQEKELPAPMLSAIQKSLPLYLQGMCIVCCQSQNPNAYLNQLLGNVIEQYIGRFLPASPYVSDLGQHPVLLALRNTATIPPISSLKKCIVQVIRKSYLEYKGSSPPPRLASILAFILQLFKETNTDIYEVELLLPGILKCLVLVSEPQVKRLATENLQYMVKACQVGSEEEPSSQLTSVFRQFIQDYGMRYYYQVYSILETVATLDQQVVIHLISTLTQSLKDSEQKWGLGRNIAQREAYSKLLSHLGQMGQDEMQRLENDNT
binding result: binds
